Measured values as given in patent US9694061B2, “Fully human antibodies to high molecular weight-melanoma associated antigen and uses thereof” (University of Pittsburgh—Of the Commonwealth System of …, priority 2008, dated 2017).

How the values were obtained:
[1] = molecular target: T1, HMW-MAA (Homo sapiens, UniProt Q6UVK1); experiment: Competition assay to map the antigenic determinant on SK-MEL-28 cells; format: binding; set-up: from tissue; host or cells: human nevi, primary and metastatic melanoma lesions (frozen sections); settings: biotinylated mAb VF1-TP34, competitor PP scFv C21
T1 sequence (Q6UVK1 30-2322): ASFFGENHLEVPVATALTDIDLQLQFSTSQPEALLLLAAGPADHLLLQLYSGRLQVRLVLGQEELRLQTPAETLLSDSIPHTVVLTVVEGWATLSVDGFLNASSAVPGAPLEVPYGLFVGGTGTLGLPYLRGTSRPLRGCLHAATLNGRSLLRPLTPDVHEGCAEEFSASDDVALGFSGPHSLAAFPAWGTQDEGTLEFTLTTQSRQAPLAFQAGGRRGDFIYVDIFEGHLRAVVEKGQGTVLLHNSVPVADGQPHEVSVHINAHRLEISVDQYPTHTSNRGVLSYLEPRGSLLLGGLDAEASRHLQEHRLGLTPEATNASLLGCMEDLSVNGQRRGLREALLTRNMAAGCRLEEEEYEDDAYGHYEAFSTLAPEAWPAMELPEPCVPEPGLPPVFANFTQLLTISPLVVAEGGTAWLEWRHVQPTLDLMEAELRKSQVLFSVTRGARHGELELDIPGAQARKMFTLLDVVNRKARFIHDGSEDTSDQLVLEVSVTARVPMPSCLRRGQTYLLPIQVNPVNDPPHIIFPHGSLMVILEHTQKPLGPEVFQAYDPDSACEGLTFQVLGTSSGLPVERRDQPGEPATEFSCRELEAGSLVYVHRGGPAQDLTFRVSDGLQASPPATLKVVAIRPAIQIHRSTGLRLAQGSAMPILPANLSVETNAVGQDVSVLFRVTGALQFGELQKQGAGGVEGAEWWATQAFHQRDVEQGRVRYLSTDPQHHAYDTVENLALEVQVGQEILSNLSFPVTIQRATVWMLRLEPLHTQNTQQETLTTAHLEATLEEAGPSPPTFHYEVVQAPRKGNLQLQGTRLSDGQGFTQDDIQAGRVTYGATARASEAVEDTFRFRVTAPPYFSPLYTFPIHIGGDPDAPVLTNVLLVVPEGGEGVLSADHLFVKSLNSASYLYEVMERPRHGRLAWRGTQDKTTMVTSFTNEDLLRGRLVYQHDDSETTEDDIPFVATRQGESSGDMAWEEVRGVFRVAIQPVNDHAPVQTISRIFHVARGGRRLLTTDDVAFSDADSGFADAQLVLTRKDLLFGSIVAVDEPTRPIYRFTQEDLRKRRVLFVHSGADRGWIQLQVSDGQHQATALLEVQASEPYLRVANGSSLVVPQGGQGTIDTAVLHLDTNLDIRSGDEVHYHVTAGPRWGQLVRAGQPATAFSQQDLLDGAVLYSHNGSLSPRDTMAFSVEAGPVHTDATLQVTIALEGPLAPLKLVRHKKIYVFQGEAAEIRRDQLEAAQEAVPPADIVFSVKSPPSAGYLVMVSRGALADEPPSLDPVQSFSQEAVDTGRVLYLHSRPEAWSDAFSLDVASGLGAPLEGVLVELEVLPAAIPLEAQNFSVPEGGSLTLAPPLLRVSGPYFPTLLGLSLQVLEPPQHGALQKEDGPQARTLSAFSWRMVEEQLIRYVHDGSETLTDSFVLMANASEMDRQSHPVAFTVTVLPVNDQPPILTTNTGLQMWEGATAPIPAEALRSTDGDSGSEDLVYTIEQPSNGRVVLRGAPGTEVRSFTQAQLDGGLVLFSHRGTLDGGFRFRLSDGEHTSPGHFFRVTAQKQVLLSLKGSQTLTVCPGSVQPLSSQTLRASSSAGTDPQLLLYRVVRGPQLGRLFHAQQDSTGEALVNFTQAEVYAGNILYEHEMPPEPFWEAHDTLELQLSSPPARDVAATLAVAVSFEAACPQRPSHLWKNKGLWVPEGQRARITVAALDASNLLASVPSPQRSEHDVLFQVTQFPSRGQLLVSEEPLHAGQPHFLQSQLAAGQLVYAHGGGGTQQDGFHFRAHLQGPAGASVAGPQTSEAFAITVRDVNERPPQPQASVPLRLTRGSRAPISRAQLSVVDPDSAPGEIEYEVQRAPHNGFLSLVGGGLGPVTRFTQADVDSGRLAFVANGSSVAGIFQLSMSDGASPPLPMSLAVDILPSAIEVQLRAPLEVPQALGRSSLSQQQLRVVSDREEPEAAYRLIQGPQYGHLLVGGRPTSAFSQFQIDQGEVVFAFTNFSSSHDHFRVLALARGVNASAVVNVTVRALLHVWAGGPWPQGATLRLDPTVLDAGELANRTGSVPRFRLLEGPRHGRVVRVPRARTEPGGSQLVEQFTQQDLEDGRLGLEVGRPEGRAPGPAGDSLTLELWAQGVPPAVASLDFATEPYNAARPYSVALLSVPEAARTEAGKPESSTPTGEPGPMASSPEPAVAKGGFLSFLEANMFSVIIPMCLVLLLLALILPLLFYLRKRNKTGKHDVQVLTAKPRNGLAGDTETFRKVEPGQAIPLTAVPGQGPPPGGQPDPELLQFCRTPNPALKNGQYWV
Method: FIG. 5. Spatial proximity of the determinant defined by scFv C21 and of that defined by mouse mAb VF1-TP34 on HMW-MAA^+ melanoma cells SK-MEL-28. Varying concentrations of mAb VF1-TP34 (-●-) (left panel) were mixed with biotinylated scFv C21 (0.25 μg/well). The mixture was then transferred to wells containing HMW-MAA^+ cells and incubated for 1 h at 4° C. Binding of antibodies was detected using SA-HRP. Results are expressed as % inhibition. Likewise, varying amounts of PP scFv C21 (-▴-) (right panel) were mixed with biotinylated mAb VF1-TP34 (40 ng/well). The mixture was then transferred to wells containing HMW-MAA^+ cells and incubated for 1 h at 4° C. […]
The ELISA to test the reactivity of soluble scFv antibodies with synthetic peptides and melanoma cells and of mouse immune sera with melanoma cells and with peptides was performed as described (Desai et al., Cancer Res 58:2417-2425, 1998; Desai et al., J Immunol 165:3275-3283, 2000; Matsui et al., J Immunol 139:2088-2095, 1987). Results are expressed as absorbance of optical density (O.D.) at 450 nm. The competition assay to map the antigenic determinant recognized by scFv C21 was performed by mixing biotinylated scFv C21 (0.25 μg/well) with two-fold dilutions of mouse mAb or scFv PP or by mixing biotinylated mAb (at an optimal amount giving absorbance, measured at 450 nm of 1.0) with two fold dilutions of scFv PP. […]

[2] = system: HMW-MAA; experiment: ELISA of soluble scFv antibodies with cell lines; format: binding, human; settings: soluble scFv clones isolated by panning with Colo38 cells
Method: FIG. 1. Selective reactivity in ELISA of soluble scFv C21 with HMW-MAA^+ human cell lines. […] Binding of scFv fragments was detected using SA-HRP. Results are expressed as absorbance at 490 nm. Human anti-anti-id scFv #119 ( ? ) was used as a specificity control.
The ELISA to test the reactivity of soluble scFv antibodies with synthetic peptides and melanoma cells and of mouse immune sera with melanoma cells and with peptides was performed as described (Desai et al., Cancer Res 58:2417-2425, 1998; Desai et al., J Immunol 165:3275-3283, 2000; Matsui et al., J Immunol 139:2088-2095, 1987). Results are expressed as absorbance of optical density (O.D.) at 450 nm. The competition assay to map the antigenic determinant recognized by scFv C21 was performed by mixing biotinylated scFv C21 (0.25 μg/well) with two-fold dilutions of mouse mAb or scFv PP or by mixing biotinylated mAb (at an optimal amount giving absorbance, measured at 450 nm of 1.0) with two fold dilutions of scFv PP. […] Binding of biotinylated scFv antibodies and biotinylated mAb to target cells was measured by sequential incubation with SA-HRP and substrate as described (Noronha et al., J Immunol 161:2968-2976, 1998). The results are expressed as percent inhibition by mAb, scFv or peptide (competitor or inhibitor) of scFv or mAb binding to HMW-MAA^+ cells. […]

[3] = molecular target: T1, HMW-MAA; experiment: Flow cytometry of M14/HMW-MAA transfectants and parental M14 cells stained with scFv; format: binding; set-up: from tissue; host or cells: human nevi, primary and metastatic melanoma lesions (frozen sections)
Method: FIG. 2. Flow cytometry analysis of HMW-MAA^+ M14#5/HMW-MAA melanoma cells stained with scFv C21. M14#5/HMW-MAA transfectants and parental HMW-MAA^− M14#5 cells were incubated on ice with PP scFv C21 and mAb 9E10 (empty histogram) and control PP scFv 119 and mAb 9E10 (grey histogram) (top panel), with HMW-MAA-specific mouse mAb 763.74 (0.5 μg) (empty histogram) and control mAb MK2-23 (grey histogram) (middle panel) and with HLA class I antigen-specific mAb TP25.99 (empty histogram) and control mAb MK2-23 (grey histogram) (bottom panel). Binding of antibodies was detected using RPE-labeled F(ab′)2 fragments of goat anti-mouse Ig antibodies. Cells were analyzed with a FACScan™ flow cytometer. Results are expressed as fluorescence intensity.
Flow cytometry analysis of melanoma cells stained with scFv antibodies or antibodies in immune sera was performed as described (Wang et al., J Immunol Methods 294:23-35, 2004, herein incorporated by reference). […] Following two washes, cells were fixed in 2% formaldehyde and analyzed with a FACScan™ flow cytometer (BD Biosciences, San Jose, Calif.). A total of 10,000 cells were counted using a forward and side scatter gate to eliminate aggregates and debris for each sample. Results are expressed as relative fluorescence intensity.

B1: scFv C21: HMW-MAA-specific fully human scFv from semi-synthetic phage display library; VH SEQ ID NO: 5, VL SEQ ID NO: 6 (antibody, listed as Homo sapiens, V domains shown)
VH: QVQLVQSGAEVKKPGSSVKVSCKASGGTFSSYAISWVRQAPGQGLEWMGGIIPIFGTANYAQKFQGRVTITADESTSTAYMELSSLRSDDTAVYYCARALDPITFDSWGQGTLVTVSR
VL: SELTQDPAVSVALGQTVRITCQGDSLRSYYASWYQQKPGQAPVLVIYGKNNRPSGIPDRFSGSSSGNTASLTITGAQAEDEADYYCNSRDSSGNHVVFGGGTKLTVLGRS
modifications: scFv linker
Inhibition of binding of mAb VF1-TP34 to SK-MEL-28 cells [1]: partially inhibited each other
Reactivity in ELISA with Colo38, FF2376 fibroblasts and T24 bladder carcinoma cells [2]: selective reactivity with Colo38 cells
Flow cytometry staining of HMW-MAA transfected M14 cells ([3]; M14 cells stably transfected with full length HMW-MAA): stained M14 cells which express HMW-MAA
Flow cytometry staining of parental M14 cells ([3]; parental M14 cells, do not express HMW-MAA): did not stain the parental M14 cells
